The record followed here is paper PMC9037348.

For the assay, the target named is GFP-CaV1.1e (embryonic splice variant of CaV1.1, lacking exon 29).

B1: γ1 subunit of the skeletal muscle voltage-gated calcium channel (mouse γ1) (natural protein)
chain: MSQTKTAKVRVTLFFILVGGVLAMVAVVTDHWAVLSPHLEHHNETCEAAHFGLWRICTARVAVHNKDKSCEHVTPSGEKNCSYFRHFNPGESSEIFEFTTQKEYSISAAAIAIFSLGFIIVGSICAFLSFGNKRDYLLRPASMFYAFAGLCLIVSVEVMRQSVKRMIDSEDTVWIEHYYSWSFACACAAFILLFLGGLFLLLFSLPRMPQNPWESCMDAEPEH
Take B1: the shift of the half-maximal potential of steady-state inactivation of CaV1.1e calcium currents to hyperpolarizing potentials on coexpression of γ1 (whole-cell patch clamp, HEK-TetOn-STAC3 cells) was 13.7 mV.
